How the values were obtained:
[1] = target: T1, recombinant PD-L1 extracellular domain fused to the mouse IgG1 Fc domain (SinoBiologicals) (human; mouse, UniProt Q9NZQ7 19-238); assay: BLI (Octet Red 96), PD-L1-mouse IgG1 Fc on AMQ biosensors, VHH dilution series
T1 construct: extracellular domain; also called human PD-L1-mouse Fc; PD-L1-mouse Fc protein; not shown: mouse IgG1 Fc domain
Experimental: (§1) Affinities of resulting variants were measured using the bio-layer interferometry technology on an Octet Red 96 instrument (ForteBio). In brief, recombinant PD-L1 extracellular domain fused to the mouse IgG1 Fc domain (SinoBiologicals) was immobilized on anti-murine IgG quantitation (AMQ) biosensors (ForteBio). Loaded sensors were incubated with a serial dilution of PD-L1 VHH variant, association and dissociation monitored and kinetic parameters were calculated using the Octet Data Analysis software v10 (ForteBio).
(§2) The aspartic acid at position 1 was included to avoid the risk of pyroglutamate formation. […] Resulting mutants were purified and affinities measured as described in Example 1.

[2] = target: T1, recombinant PD-L1 extracellular domain …; assay: BLI (Octet), PD-L1-mouse Fc on the sensor, VHH dilution series, as described above
Experimental: as §1

[3] = target: T1, recombinant PD-L1 extracellular domain …; assay: BLI as in Example 1; reference not named, taken as parental 2LIG189
Experimental: as §1, §2

[4] = target: T1, recombinant PD-L1 extracellular domain …; assay: BLI (Octet Red 96); ratio of the printed KDs, variant over 2LIG189
Experimental: as §1, §2

[5] = target: T1, recombinant PD-L1 extracellular domain …; assay: BLI as described above; reference not named
[6] = target: T1, recombinant PD-L1 extracellular domain …; assay: BLI (Octet Red 96); ratio of the printed KDs, 2LIG99 over variant
Experimental: as §1

[7] = target: T1, recombinant PD-L1 extracellular domain …; assay: BLI (Octet Red 96), PD-L1-mouse IgG1 Fc on AMQ biosensors, VHH dilution series; remark: listed apart in the source
Experimental: as §1

[8] = target: T1, recombinant PD-L1 extracellular domain …; assay: BLI (Octet Red 96), PD-L1-mouse IgG1 Fc on AMQ biosensors, VHH dilution series; KD and kdis printed ND
Experimental: as §1

T1 sequence (Q9NZQ7 19-238): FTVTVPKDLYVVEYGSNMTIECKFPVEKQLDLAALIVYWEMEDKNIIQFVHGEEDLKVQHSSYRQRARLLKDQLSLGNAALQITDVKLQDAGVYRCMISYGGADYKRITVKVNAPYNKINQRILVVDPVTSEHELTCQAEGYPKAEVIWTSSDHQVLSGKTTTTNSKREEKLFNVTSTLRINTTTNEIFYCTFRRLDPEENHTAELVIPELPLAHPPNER

Kd [1]	koff [1]	kon [1]	Kd [2]	koff [2]	kon [2]	Ratio KD [6]	Kd [7]	koff [7]	kon [7]	Binder	other results
			0.324 nM	0.000145 s⁻¹	446000 M⁻¹ s⁻¹					2LIG189_OPT_D33H (VHH) VHH: DVQLVESGGGLVQPGGSLRLSCAASGKIFSGNHMGWYRQAPGKQRELVGIITSGGITDYADAVKGRFTISRDNSKNTVYLQMNSLRPEDTAVYYCNMRDRTIWWGQGTLVTVSS	
0.125 nM	8.84e-06 s⁻¹	70500 M⁻¹ s⁻¹								2LIG189 variant N32Q (VHH, not shown: small tags and cut ends) VHH: QVQLQESGGGLVQAGGSLRLSCAASGKIFSGQDMGWYRQAPGKQRELVGIITSGGITDYADAVKGRFTISRDNAKNMMYLQMNSLKPEDTAVYYCNMRDRTIWWGQGTQVTVSS	fold increase in affinity [3]: ≥ 2 fold; Ratio KD [4]: 0.16
0.372 nM	0.000157 s⁻¹	421000 M⁻¹ s⁻¹								2LIG189 variant D33H (VHH, not shown: small tags and cut ends) VHH: QVQLQESGGGLVQAGGSLRLSCAASGKIFSGNHMGWYRQAPGKQRELVGIITSGGITDYADAVKGRFTISRDNAKNMMYLQMNSLKPEDTAVYYCNMRDRTIWWGQGTQVTVSS	fold increase in affinity [3]: ≥ 2 fold; Ratio KD [4]: 0.47
			0.144 nM	7.71e-05 s⁻¹	536000 M⁻¹ s⁻¹					SEQ ID NO: 72 (2LIG189 humanization variant with deamidation and oxidation risk sites removed) (VHH, also called 2LIG189 second wave variant) VHH: DVQLVESGGGLVQPGGSLRLSCAASGKIFSGNHMGWYRQAPGKQRELVGIITSGGITDYADAVKGRFTISRDNSKNTVYLQMNSLRPEDTAVYYCNVRDRTIWWGQGTLVTVSS	fold increase in affinity [5]: 40 fold
0.0115 nM	4.88e-07 s⁻¹	42500 M⁻¹ s⁻¹								2LIG189 variant M97L (VHH, not shown: small tags and cut ends) VHH: QVQLQESGGGLVQAGGSLRLSCAASGKIFSGNDMGWYRQAPGKQRELVGIITSGGITDYADAVKGRFTISRDNAKNMMYLQMNSLKPEDTAVYYCNLRDRTIWWGQGTQVTVSS	fold increase in affinity [3]: ≥ 2 fold; Ratio KD [4]: 0.01
			2.32 nM	0.000457 s⁻¹	197000 M⁻¹ s⁻¹					2LIG189_OPT_N32R_M97I (VHH) VHH: DVQLVESGGGLVQPGGSLRLSCAASGKIFSGRDMGWYRQAPGKQRELVGIITSGGITDYADAVKGRFTISRDNSKNTVYLQMNSLRPEDTAVYYCNIRDRTIWWGQGTLVTVSS	
						0.61	0.459 nM	0.0007 s⁻¹	1.53e+06 M⁻¹ s⁻¹	2LIG99_D55K (VHH) VHH: QVQLQESGGGLVQAGGSLRLSCTASGTIFSINRMDWFRQAPGKQRELVALITSKGTPAYADSAKGRFTISRDNTKKTVSLQMNSLKPEDTAVYYCHVSSGVYNYWGQGTQVTVSS	
						0.35	0.794 nM	0.000704 s⁻¹	886000 M⁻¹ s⁻¹	2LIG99_OPT1 (VHH) VHH: DVQLVESGGGLVQPGGSLRLSCTASGTIFSINRMDWFRQAPGKQRELVALITSDGTPAYADSAKGRFTISRDNSKKTVSLQMNSLRPEDTAVYYCHVSSGVYNYWGQGTLVTVSS	
						0.19	1.48 nM	0.000436 s⁻¹	295000 M⁻¹ s⁻¹	2LIG99_D55T (VHH) VHH: QVQLQESGGGLVQAGGSLRLSCTASGTIFSINRMDWFRQAPGKQRELVALITSTGTPAYADSAKGRFTISRDNTKKTVSLQMNSLKPEDTAVYYCHVSSGVYNYWGQGTQVTVSS	
						0.03	10.3 nM	0.00124 s⁻¹	121000 M⁻¹ s⁻¹	P-1664: 2LIG99_OPT6 (Q1D_Q5V_A14P_T23A_A63V_T74S_K76N_S79Y_K86R_Q110L) (VHH, not shown: C-terminal His-tag) VHH: DVQLVESGGGLVQPGGSLRLSCAASGTIFSINRMDWFRQAPGKQRELVALITSDGTPAYADSVKGRFTISRDNSKNTVYLQMNSLRPEDTAVYYCHVSSGVYNYWGQGTLVTVSS	
						0.19	1.48 nM	0.000658 s⁻¹	445000 M⁻¹ s⁻¹	P-1660: 2LIG99_OPT2 (Q1D_Q5V_A14P_T23A_T74S_K86R_Q110L) (VHH, not shown: C-terminal His-tag) VHH: DVQLVESGGGLVQPGGSLRLSCAASGTIFSINRMDWFRQAPGKQRELVALITSDGTPAYADSAKGRFTISRDNSKKTVSLQMNSLRPEDTAVYYCHVSSGVYNYWGQGTLVTVSS	

More lines, now with the values behind:

Binder	Kd [1]	koff [1]	kon [1]	Kd [2]	koff [2]	kon [2]	Ratio KD [6]	Kd [7]	koff [7]	kon [7]	other results
2LIG189 VHH (VHH, not shown: small tags and cut ends, Parental PD-L1 VHH; stands here as the molecule on which the mutations are counted; also called wild-type 2LIG189) VHH: QVQLQESGGGLVQAGGSLRLSCAASGKIFSGNDMGWYRQAPGKQRELVGIITSGGITDYADAVKGRFTISRDNAKNMMYLQMNSLKPEDTAVYYCNMRDRTIWWGQGTQVTVSS	0.791 nM	0.000148 s⁻¹	187000 M⁻¹ s⁻¹	5.41 nM	0.00131 s⁻¹	243000 M⁻¹ s⁻¹					
2LIG189_OPT_N32R (VHH) VHH: DVQLVESGGGLVQPGGSLRLSCAASGKIFSGRDMGWYRQAPGKQRELVGIITSGGITDYADAVKGRFTISRDNSKNTVYLQMNSLRPEDTAVYYCNMRDRTIWWGQGTLVTVSS				1.94 nM	0.000731 s⁻¹	377000 M⁻¹ s⁻¹					
2LIG189_OPT_N32R_M97V (VHH) VHH: DVQLVESGGGLVQPGGSLRLSCAASGKIFSGRDMGWYRQAPGKQRELVGIITSGGITDYADAVKGRFTISRDNSKNTVYLQMNSLRPEDTAVYYCNVRDRTIWWGQGTLVTVSS				3.38 nM	0.00056 s⁻¹	166000 M⁻¹ s⁻¹					
SEQ ID NO: 73 (2LIG189 humanization variant with deamidation and oxidation risk sites removed) (VHH, also called 2LIG189 second wave variant) VHH: DVQLVESGGGLVQPGGSLRLSCAASGKIFSGNHMGWYRQAPGKQRELVGIITSGGITDYADAVKGRFTISRDNSKNTVYLQMNSLRPEDTAVYYCNIRDRTIWWGQGTLVTVSS				0.555 nM	0.000329 s⁻¹	593000 M⁻¹ s⁻¹					
2LIG189 variant N32R (VHH, not shown: small tags and cut ends) VHH: QVQLQESGGGLVQAGGSLRLSCAASGKIFSGRDMGWYRQAPGKQRELVGIITSGGITDYADAVKGRFTISRDNAKNMMYLQMNSLKPEDTAVYYCNMRDRTIWWGQGTQVTVSS	< 0.001 nM	< 1e-07 s⁻¹	351000 M⁻¹ s⁻¹								fold increase in affinity [3]: ≥ 2 fold
2LIG189 variant M97I (VHH, not shown: small tags and cut ends, also called M971 (so in the source)) VHH: QVQLQESGGGLVQAGGSLRLSCAASGKIFSGNDMGWYRQAPGKQRELVGIITSGGITDYADAVKGRFTISRDNAKNMMYLQMNSLKPEDTAVYYCNIRDRTIWWGQGTQVTVSS	0.00741 nM	3.45e-07 s⁻¹	46500 M⁻¹ s⁻¹								fold increase in affinity [3]: ≥ 2 fold; Ratio KD [4]: 0.01
2LIG189 variant M97V (VHH, not shown: small tags and cut ends) VHH: QVQLQESGGGLVQAGGSLRLSCAASGKIFSGNDMGWYRQAPGKQRELVGIITSGGITDYADAVKGRFTISRDNAKNMMYLQMNSLKPEDTAVYYCNVRDRTIWWGQGTQVTVSS	0.00599 nM	3.81e-07 s⁻¹	63700 M⁻¹ s⁻¹								fold increase in affinity [3]: ≥ 2 fold; Ratio KD [4]: 0.01
2LIG99_OPT4 (VHH) VHH: DVQLVESGGGLVQPGGSLRLSCTASGTIFSINRMDWFRQAPGKQRELVALITSDGTPAYADSAKGRFTISRDNSKNTVSLQMNSLRPEDTAVYYCHVSSGVYNYWGQGTLVTVSS							0.62	0.452 nM	0.000304 s⁻¹	671000 M⁻¹ s⁻¹	
P-1665: 2LIG99_D54G (VHH, not shown: C-terminal His-tag) VHH: QVQLQESGGGLVQAGGSLRLSCTASGTIFSINRMDWFRQAPGKQRELVALITSGGTPAYADSAKGRFTISRDNTKKTVSLQMNSLKPEDTAVYYCHVSSGVYNYWGQGTQVTVSS											kon [8]: 1.28e+06 M⁻¹ s⁻¹
2LIG99_OPT5 (VHH) VHH: DVQLVESGGGLVQPGGSLRLSCTASGTIFSINRMDWFRQAPGKQRELVALITSDGTPAYADSAKGRFTISRDNSKKTVYLQMNSLRPEDTAVYYCHVSSGVYNYWGQGTLVTVSS							2.27	0.124 nM	7.55e-05 s⁻¹	607000 M⁻¹ s⁻¹	
2LIG99_G56R (VHH) VHH: QVQLQESGGGLVQAGGSLRLSCTASGTIFSINRMDWFRQAPGKQRELVALITSDRTPAYADSAKGRFTISRDNTKKTVSLQMNSLKPEDTAVYYCHVSSGVYNYWGQGTQVTVSS							0.28	1.01 nM	0.000761 s⁻¹	753000 M⁻¹ s⁻¹	

From patent US20230002493A1 (ORIONIS BIOSCIENCES, published 2023)
